What was measured:
Settings in all cases: Homo sapiens
[1] = substrate: CC[C@H](C)[C@H](NC(=O)[C@@H](NC(=O)[C@@H]1CCCN1C(=O)[C@H](CC(=O)O)NC(C)=O)[C@@H](C)O)C(=O)N[C@@H](Cc1cc(=O)oc2cc(OP(=O)(O)O)ccc12)C(=O)N1CCC[C@H]1C(=O)N[C@H](C(=O)N[C@@H](CC(C)C)C(=O)N[C@@H](CC(=O)O)C(N)=O)C(C)C
Description: (§1) Substrate activity at SHP2 (unknown origin) expressed in Escherichia coli BL21 (DE3) assessed as Kcat/Km ratio incubated for 60 mins by fluorescence based assay

[2] = substrate: CC[C@H](C)[C@H](NC(=O)[C@@H](NC(=O)[C@H](CC(=O)O)NC(=O)[C@H](CC(=O)O)NC(C)=O)[C@@H](C)O)C(=O)N[C@@H](Cc1cc(=O)oc2cc(OP(=O)(O)O)ccc12)C(=O)N[C@@H](CC(=O)O)C(=O)N[C@H](C(=O)N[C@@H](CC(C)C)C(=O)N[C@@H](CC(=O)O)C(N)=O)C(C)C
Description: as §1

[3] = substrate: CC[C@H](C)[C@H](NC(=O)[C@@H](NC(=O)[C@@H]1CCCN1C(=O)[C@H](CC(=O)O)NC(C)=O)[C@@H](C)O)C(=O)N[C@@H](Cc1cc(=O)oc2cc(OP(=O)(O)O)ccc12)C(=O)N1CCC[C@H]1C(=O)N[C@H](C(=O)N[C@@H](CC(C)C)C(=O)N[C@@H](CC(=O)O)C(N)=O)C(C)C; remark: listed apart in the source
Description: (§2) Substrate activity at SHP2 (unknown origin) expressed in Escherichia coli BL21 (DE3) assessed as Kcat incubated for 60 mins by fluorescence based assay

[4] = substrate: CC[C@H](C)[C@H](NC(=O)[C@@H](NC(=O)[C@H](CC(=O)O)NC(=O)[C@H](CC(=O)O)NC(C)=O)[C@@H](C)O)C(=O)N[C@@H](Cc1cc(=O)oc2cc(OP(=O)(O)O)ccc12)C(=O)N[C@@H](CC(=O)O)C(=O)N[C@H](C(=O)N[C@@H](CC(C)C)C(=O)N[C@@H](CC(=O)O)C(N)=O)C(C)C; remark: listed apart in the source
Description: as §2

[5] = substrate: CC[C@H](C)[C@H](NC(=O)[C@@H](NC(=O)[C@@H]1CCCN1C(=O)[C@H](CC(=O)O)NC(C)=O)[C@@H](C)O)C(=O)N[C@@H](Cc1cc(=O)oc2cc(OP(=O)(O)O)ccc12)C(=O)N1CCC[C@H]1C(=O)N[C@H](C(=O)N[C@@H](CC(C)C)C(=O)N[C@@H](CC(=O)O)C(N)=O)C(C)C; remark: listed apart in the source
Description: (§3) Substrate activity at SHP2 (unknown origin) expressed in Escherichia coli BL21 (DE3) assessed as Km incubated for 60 mins by fluorescence based assay

[6] = substrate: CC[C@H](C)[C@H](NC(=O)[C@@H](NC(=O)[C@H](CC(=O)O)NC(=O)[C@H](CC(=O)O)NC(C)=O)[C@@H](C)O)C(=O)N[C@@H](Cc1cc(=O)oc2cc(OP(=O)(O)O)ccc12)C(=O)N[C@@H](CC(=O)O)C(=O)N[C@H](C(=O)N[C@@H](CC(C)C)C(=O)N[C@@H](CC(=O)O)C(N)=O)C(C)C; remark: listed apart in the source
Description: as §3

B1: Tyrosine-protein phosphatase non-receptor type 11 (Homo sapiens), Q06124 (protein)
chain: MTSRRWFHPNITGVEAENLLLTRGVDGSFLARPSKSNPGDFTLSVRRNGAVTHIKIQNTGDYYDLYGGEKFATLAELVQYYMEHHGQLKEKNGDVIELKYPLNCADPTSERWFHGHLSGKEAEKLLTEKGKHGSFLVRESQSHPGDFVLSVRTGDDKGESNDGKSKVTHVMIRCQELKYDVGGGERFDSLTDLVEHYKKNPMVETLGTVLQLKQPLNTTRINAAEIESRVRELSKLAETTDKVKQGFWEEFETLQQQECKLLYSRKEGQRQENKNKNRYKNILPFDHTRVVLHDGDPNEPVSDYINANIIMPEFETKCNNSKPKKSYIATQGCLQNTVNDFWRMVFQENSRVIVMTTKEVERGKSKCVKYWPDEYALKEYGVMRVRNVKESAAHDYTLRELKLSKVGQGNTERTVWQYHFRTWPDHGVPSDPGGVLDFLEEVHHKQESIMDAGPVVVHCSAGIGRTGTFIVIDILIDIIREKGVDCDIDVPKTIQMVRSQRSGMVQTEAQYRFIYMAVQHYIETLQRRIEEEQKSKRKGHEYTNIKYSLADQTSGDQSPLPPCTPTPPCAEMREDSARVYENVGLMQQQKSFR
Q: B1 was tested. Which kcat/Km [1] did it give?
A: 6 to 6.4 M⁻¹ s⁻¹

Q: And the kcat/Km [2]?
A: 270 M⁻¹ s⁻¹

Q: And the kcat [3]?
A: 0.0045 s⁻¹

Q: What about the kcat [4] of the same protein?
A: 0.059 s⁻¹

Q: And the Km [5]?
A: 700 µM

Q: And the Km [6]?
A: 220 µM
